Publication PMC3200346, “A Highly Stable Plastidic-Type Ferredoxin-NADP(H) Reductase in the Pathogenic Bacterium Leptospira interrogans” (PLoS ONE, 2011)

How the values were obtained:
Pea leaf FNR = biological target: T1, Pea leaf FNR (Lathyrus oleraceus, UniProt P10933); assay: difference absorption spectroscopy; type: binding; settings: read-out: K d ^NADP+ /
T1 construct: gene PETH; preparation of the assayed enzyme not described; monomeric FAD flavoprotein
T1 sequence (P10933 53-360): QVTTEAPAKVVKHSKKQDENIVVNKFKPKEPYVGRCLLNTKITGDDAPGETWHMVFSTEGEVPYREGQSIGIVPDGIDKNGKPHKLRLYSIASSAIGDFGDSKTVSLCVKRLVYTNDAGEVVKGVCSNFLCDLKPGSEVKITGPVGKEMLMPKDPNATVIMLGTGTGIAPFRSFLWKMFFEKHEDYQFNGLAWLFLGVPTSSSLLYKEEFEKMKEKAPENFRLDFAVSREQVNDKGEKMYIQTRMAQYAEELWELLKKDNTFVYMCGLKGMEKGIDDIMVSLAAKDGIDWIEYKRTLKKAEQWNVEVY
Text: difference absorption spectroscopy on Pea leaf FNR

E. coli FNR [1] = biological target: T2, E. coli FNR (Escherichia coli, UniProt P28861); assay: difference absorption spectroscopy; type: binding; settings: read-out: K d ^NADP+ /
T2 construct: gene fpr; ferredoxin-NADP(H) reductase, not the FNR transcription regulator
T2 sequence (P28861 2-248): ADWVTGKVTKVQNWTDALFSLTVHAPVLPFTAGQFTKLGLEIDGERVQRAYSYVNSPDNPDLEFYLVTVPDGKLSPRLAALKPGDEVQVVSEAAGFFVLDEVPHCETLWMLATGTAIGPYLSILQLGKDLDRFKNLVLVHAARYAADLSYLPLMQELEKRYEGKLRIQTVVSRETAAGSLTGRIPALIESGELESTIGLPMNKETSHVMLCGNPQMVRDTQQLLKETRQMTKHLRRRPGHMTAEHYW
Text: difference absorption spectroscopy on E. coli FNR

LepFNR [2] = biological target: T3, LepFNR (Leptospira interrogans, UniProt Q8EY89); assay: difference absorption spectroscopy titration; type: binding
T3 construct: gene LA_4327; recombinant in E. coli BL21(DE3)pLysS, thioredoxin fusion (pET32JO-LepFNR) cut off by thrombin; monomeric FAD flavoprotein
T3 sequence (Q8EY89 entry or part of it): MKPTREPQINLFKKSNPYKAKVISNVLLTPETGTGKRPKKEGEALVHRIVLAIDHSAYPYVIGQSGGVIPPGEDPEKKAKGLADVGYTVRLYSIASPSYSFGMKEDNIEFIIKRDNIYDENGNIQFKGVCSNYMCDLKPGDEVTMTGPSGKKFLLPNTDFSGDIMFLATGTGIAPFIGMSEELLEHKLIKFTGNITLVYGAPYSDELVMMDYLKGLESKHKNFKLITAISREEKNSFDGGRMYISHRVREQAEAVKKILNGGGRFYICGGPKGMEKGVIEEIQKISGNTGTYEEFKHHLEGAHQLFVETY
Text: difference absorption spectroscopy titration on LepFNR

[3] = biological target: Leptospira interrogans ferredoxin-NADP(H) reductase (L. interrogans)
LepFNR [4] = biological target: T3, LepFNR; assay: UV-visible spectrum; FAD fluorescence (release with urea); type: binding; settings: noncovalently bound prosthetic group, 50 mM Tris-HCl pH 8.0, 25 °C
E. coli FNR [5] = biological target: T2, E. coli FNR; assay: UV-visible spectrum; type: binding; settings: noncovalently bound prosthetic group
[6] = biological target: Leptospira interrogans ferredoxin-NADP(H) reductase (L. interrogans); remark: listed apart in the source
[7] = test system: NC(=O)C1=CN([C@@H]2O[C@H](COP(=O)(O)OP(=O)(O)OC[C@H]3O[C@@H](n4cnc5c(N)ncnc54)[C@H](OP(=O)(O)O)[C@@H]3O)[C@@H](O)[C@H]2O)C=CC1; assay: purified protein; settings: 1 mM potassium ferricyanide, NADPH regenerating system, 50 mM Tris-HCl pH 8.0, 30 °C
purified protein [8] = substrate: NC(=O)C1=CN([C@@H]2O[C@H](COP(=O)(O)OP(=O)(O)OC[C@H]3O[C@@H](n4cnc5c(N)ncnc54)[C@H](OP(=O)(O)O)[C@@H]3O)[C@@H](O)[C@H]2O)C=CC1; assay: purified protein; type: biochemical, Escherichia coli; settings: 1 mM potassium ferricyanide, NADPH regenerating system, 50 mM Tris-HCl pH 8.0, 30 °C
purified protein [9] = substrate: NC(=O)C1=CN([C@@H]2O[C@H](COP(=O)(O)OP(=O)(O)OC[C@H]3O[C@@H](n4cnc5c(N)ncnc54)[C@H](OP(=O)(O)O)[C@@H]3O)[C@@H](O)[C@H]2O)C=CC1; assay: purified protein; type: biochemical, Lathyrus oleraceus; settings: 1 mM potassium ferricyanide, NADPH regenerating system, 50 mM Tris-HCl pH 8.0, 30 °C

`NC(=O)c1ccc[n+]([C@@H]2O[C@H](COP(=O)(O)OP(=O)(O)OC[C@H]3O[C@@H](n4cnc5c(N)ncnc54)[C@H](OP(=O)(O)O)[C@@H]3O)[C@@H](O)[C@H]2O)c1` [NADP^+] showed a Kd (Pea leaf FNR) of 11.3 ± 2.1 µM, a Kd (E. coli FNR [1]) of 7.6 ± 2.2 µM and a Kd (LepFNR [2]) of 13.2 ± 3.1 µM.

In the case of “Leptospira interrogans LB107 [4Fe-4S] ferredoxin (natural protein)”, the NADPH-cytochrome c reductase activity of LepFNR with LB107 ferredoxin under anaerobic conditions at different pH values; maximal specific activity at pH 6.5, lower at higher pH [3] is reported as 6.13 µmol/min/mg.

For `Cc1cc2nc3c(=O)[nH]c(=O)nc-3n(C[C@H](O)[C@H](O)[C@H](O)COP(=O)(O)OP(=O)(O)OC[C@H]3O[C@@H](n4cnc5c(N)ncnc54)[C@H](O)[C@@H]3O)c2cc1C` [FAD], the “UV-visible spectrum; FAD fluorescence (release with urea)” value (LepFNR [4]) was “the prosthetic group remains bound to the enzyme” and the UV-visible spectrum (E. coli FNR [5]) was “spectra of the pea leaf FNR, E. coli FNR and LepFNR, all essentially in oxidized states”.

“Pisum sativum leaf ferredoxin (from UniProt P09911 53-149) (natural protein)” was tested, and the NADPH-cytochrome c reductase activity of LepFNR with P. sativum leaf ferredoxin; the reaction was linear with pea leaf ferredoxin up to 70 µM, no kinetic parameters determined [6] was 2.5 s⁻¹.

“LepFNR (Leptospira interrogans serovar Lai str. 56601)” was tested, and the Km [7] was 14.5 ± 1.7 µM, the kcat [7] was 258 ± 13.7 s⁻¹ and the kcat/Km [7] was 1.78e+07 M⁻¹ s⁻¹.

B1: E. coli FNR (Escherichia coli K-12) (protein)
chain: ADWVTGKVTKVQNWTDALFSLTVHAPVLPFTAGQFTKLGLEIDGERVQRAYSYVNSPDNPDLEFYLVTVPDGKLSPRLAALKPGDEVQVVSEAAGFFVLDEVPHCETLWMLATGTAIGPYLSILQLGKDLDRFKNLVLVHAARYAADLSYLPLMQELEKRYEGKLRIQTVVSRETAAGSLTGRIPALIESGELESTIGLPMNKETSHVMLCGNPQMVRDTQQLLKETRQMTKHLRRRPGHMTAEHYW
notes: ferredoxin-NADP(H) reductase, not the FNR transcription regulator
B1 was tested, and the Km (purified protein [8]) was 8.3 ± 0.5 µM, the kcat (purified protein [8]) was 38.2 ± 2.3 s⁻¹ and the kcat/Km (purified protein [8]) was 5e+06 M⁻¹ s⁻¹.

B2: Pea leaf FNR (Lathyrus oleraceus) (protein)
chain: QVTTEAPAKVVKHSKKQDENIVVNKFKPKEPYVGRCLLNTKITGDDAPGETWHMVFSTEGEVPYREGQSIGIVPDGIDKNGKPHKLRLYSIASSAIGDFGDSKTVSLCVKRLVYTNDAGEVVKGVCSNFLCDLKPGSEVKITGPVGKEMLMPKDPNATVIMLGTGTGIAPFRSFLWKMFFEKHEDYQFNGLAWLFLGVPTSSSLLYKEEFEKMKEKAPENFRLDFAVSREQVNDKGEKMYIQTRMAQYAEELWELLKKDNTFVYMCGLKGMEKGIDDIMVSLAAKDGIDWIEYKRTLKKAEQWNVEVY
notes: preparation of the assayed enzyme not described; monomeric FAD flavoprotein
B2 was tested, and the Km (purified protein [9]) was 15.0 ± 1.6 µM, the kcat (purified protein [9]) was 325 ± 16.5 s⁻¹ and the kcat/Km (purified protein [9]) was 2.17e+07 M⁻¹ s⁻¹.
